The supplement of paper PMC11780869

Test system: Bacillus subtilis
Assay: cleaved RNA product abundance (RNA/gDNA barcode ratio) relative to median wild-type variant (ratio to wild type); higher = more accumulation of the downstream cleavage product
Details: cleavage site: cggR-gapA (positions -7 to +36 mutated)
Outline: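 Oligos with a 9% error rate were used to build barcoded, mutagenized RNase Y cleavage-site windows within truncated aprE or tetM reporter mRNAs, which were integrated into the B. subtilis chromosome. Cultures were grown in LB at 37°C between OD600 0.0003 and 0.3. Cleaved RNA was gel-selected, reverse transcribed and barcode-sequenced, as were genomic DNA barcodes, and UMIs were collapsed. Cleaved product abundance is the scaled RNA:gDNA barcode ratio, with the median construct carrying the unmutated site as reference.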

[1] = experiment (reporter, strain, medium): exp 2b: truncated aprE reporter, strain BJT200
[2] = experiment (reporter, strain, medium): exp 4a: truncated aprE reporter, strain BJT201 with 2% xylose (RNase J1 expressed)

Sequence	cleaved RNA product abundance [1]	cleaved RNA product abundance [2]	cleaved RNA product abundance (experiment (reporter, strain, medium): exp 6: tetM reporter, strain 168)
ACAGACGAAGGAGCCGCAAAGAATTTATTAAGGGAAGAATAATCCCTCAATATAAATATCTCTCACTTATTTAAA	0.289	0.518	–
ACAGACGAAGGAGCCGCAAAGAATTTATTAAGGGACGAATAATCCCTCAATATAAATATCTCTCACTTATTTAAA	0.463	0.605	–
ACAGACGAAGGAGCCGCAAAGAATTTATTAAGGGAGGAATAATCCCTCAATATAAATATCTCTCACTTATTTAAA	–	0.459	–
ACAGACGAAGGAGCCGCAAAGAATTTATTAAGGGATAAATAATCCCTCAATATAAATATCTCTCACTTATTTAAA	0.767	0.595	–
ACAGACGAAGGAGCCGCAAAGAATTTATTAAGGGATCAATAATCCCTCAATATAAATATCTCTCACTTATTTAAA	–	0.73	–
ACAGACGAAGGAGCCGCAAAGAATTTATTAAGGGATGAAAAATCCCTCAATATAAATATCTCTCACTTATTTAAA	0.561	0.35	–
ACAGACGAAGGAGCCGCAAAGAATTTATTAAGGGATGAACAATCCCTCAATATAAAAATCTCTCACTTATTTAAA	–	0.8	–
ACAGACGAAGGAGCCGCAAAGAATTTATTAAGGGATGAACAATCCCTCAATATAAATATCTCTCACTTATTTAAA	–	0.451	–
ACAGACGAAGGAGCCGCAAAGAATTTATTAAGGGATGAATAAACCCTCAATATAAATATCTCTCACTTATTTAAA	0.322	0.292	–
ACAGACGAAGGAGCCGCAAAGAATTTATTAAGGGATGAATAACCCCTCAATATAAATATCTCTCACTTATTTAAA	–	0.452	–
ACAGACGAAGGAGCCGCAAAGAATTTATTAAGGGATGAATAAGCCCTCAATATAAATATCTCTCACTTATTTAAA	0.502	0.573	–
ACAGACGAAGGAGCCGCAAAGAATTTATTAAGGGATGAATAATACCTCAATATAAATATCTCTCACTTATTTAAA	0.105	0.177	–
ACAGACGAAGGAGCCGCAAAGAATTTATTAAGGGATGAATAATCACTCAATATAAATATCTCTCACTTATTTAAA	0.134	0.119	–
ACAGACGAAGGAGCCGCAAAGAATTTATTAAGGGATGAATAATCCATCAATATAAATATCTCTCACTTATTTAAA	0.204	0.269	–
ACAGACGAAGGAGCCGCAAAGAATTTATTAAGGGATGAATAATCCCACAATATAAATATCTCTCACTTATTTAAA	–	0.259	–
ACAGACGAAGGAGCCGCAAAGAATTTATTAAGGGATGAATAATCCCCCAATATAAATATCTCTCACTTATTTAAA	0.189	0.202	–
ACAGACGAAGGAGCCGCAAAGAATTTATTAAGGGATGAATAATCCCTAAATATAAATATCTCTCACTTATTTAAA	0.496	0.591	–
ACAGACGAAGGAGCCGCAAAGAATTTATTAAGGGATGAATAATCCCTCAAAATAAATATCTCTCACTTATTTAAA	0.198	0.273	–
ACAGACGAAGGAGCCGCAAAGAATTTATTAAGGGATGAATAATCCCTCAACATAAATATCTCTCACTTATTTAAA	0.298	0.365	–
ACAGACGAAGGAGCCGCAAAGAATTTATTAAGGGATGAATAATCCCTCAATAAAAATATCTCTCACTTATTTAAA	–	0.066	–

Sequence	cleaved RNA product abundance [1]	cleaved RNA product abundance [2]	cleaved RNA product abundance (experiment (reporter, strain, medium): exp 6: tetM reporter, strain 168)
ACAGACGAAGGAGCCGCAAAGAATTTATTAAGGGATGAATAATCCCTCAATAGAAATATCTCTCACTTATTTAAA	–	0.0925	–
ACAGACGAAGGAGCCGCAAAGAATTTATTAAGGGATGAATAATCCCTCAATATAAAAATCTCTCACTTATTTAAA	–	0.532	–
ACAGACGAAGGAGCCGCAAAGAATTTATTAAGGGATGAATAATCCCTCAATATAAACATCTCTCACTTATTTAAA	0.291	0.683	–
ACAGACGAAGGAGCCGCAAAGAATTTATTAAGGGATGAATAATCCCTCAATATAAATAACTCTCACTTATTTAAA	–	0.544	–
ACAGACGAAGGAGCCGCAAAGAATTTATTAAGGGATGAATAATCCCTCAATATAAATAGCTCTCACTTATTTAAA	–	0.327	–
ACAGACGAAGGAGCCGCAAAGAATTTATTAAGGGATGAATAATCCCTCAATATAAATATCTCTCACTTATTAAAG	–	0.836	–
ACAGACGAAGGAGCCGCAAAGAATTTATTAAGGGATGAATAATCCCTCAATATAAATATCTCTCACTTATTTAAA	0.775	0.743	0.623
ACAGACGAAGGAGCCGCAAAGAATTTATTAAGGGATGAATAATCCCTCAATATAAATATTTCTCACTTATTTAAA	–	0.259	–
ACAGACGAAGGAGCCGCAAAGAATTTATTAAGGGATGAATAATCCCTCAATATAAATGTCTCTCACTTATTTAAA	–	0.282	–
ACAGACGAAGGAGCCGCAAAGAATTTATTAAGGGATGAATAATCCCTCAATATAAGTATCTCTCACTTATTTAAA	–	0.216	–
ACAGACGAAGGAGCCGCAAAGAATTTATTAAGGGATGAATAATCCCTCAATATAATTATCTCTCACTTATTTAAA	–	0.354	–
ACAGACGAAGGAGCCGCAAAGAATTTATTAAGGGATGAATAATCCCTCAATATACATATCTCTCACTTATTTAAA	–	0.606	–
ACAGACGAAGGAGCCGCAAAGAATTTATTAAGGGATGAATAATCCCTCAATATAGATATCTCTCACTTATTTAAA	–	0.431	–
ACAGACGAAGGAGCCGCAAAGAATTTATTAAGGGATGAATAATCCCTCAATATATATATCTCTCACTTATTTAAA	0.649	0.46	–
ACAGACGAAGGAGCCGCAAAGAATTTATTAAGGGATGAATAATCCCTCAATATTAATATCTCTCACTTATTTAAA	0.109	–	–
ACAGACGAAGGAGCCGCAAAGAATTTATTAAGGGATGAATAATCCCTCAATCTAAATATCTCTCACTTATTTAAA	–	0.102	–
ACAGACGAAGGAGCCGCAAAGAATTTATTAAGGGATGAATAATCCCTCAATTTAAATATCTCTCACTTATTTAAA	0.154	0.0947	–
ACAGACGAAGGAGCCGCAAAGAATTTATTAAGGGATGAATAATCCCTCACTATAAATATCTCTCACTTATTTAAA	0.193	0.283	–
ACAGACGAAGGAGCCGCAAAGAATTTATTAAGGGATGAATAATCCCTCATTATAAATATCTCTCACTTATTTAAA	0.278	0.377	–
ACAGACGAAGGAGCCGCAAAGAATTTATTAAGGGATGAATAATCCCTCCATATAAATATCTCTCACTTATTTAAA	–	0.424	–

Sequence	cleaved RNA product abundance [1]	cleaved RNA product abundance [2]	cleaved RNA product abundance (experiment (reporter, strain, medium): exp 6: tetM reporter, strain 168)
ACAGACGAAGGAGCCGCAAAGAATTTATTAAGGGATGAATAATCCCTCGATATAAATATCTCTCACTTATTTAAA	–	0.422	–
ACAGACGAAGGAGCCGCAAAGAATTTATTAAGGGATGAATAATCCCTCTATATAAATATCTCTCACTTATTTAAA	0.363	0.543	–
ACAGACGAAGGAGCCGCAAAGAATTTATTAAGGGATGAATAATCCCTTAATATAAATATCTCTCACTTATTTAAA	–	0.448	–
ACAGACGAAGGAGCCGCAAAGAATTTATTAAGGGATGAATAATCCGTCAATATAAATATCTCTCACTTATTTAAA	–	0.163	–
ACAGACGAAGGAGCCGCAAAGAATTTATTAAGGGATGAATAATCCTTCAATATAAATATCTCTCACTTATTTAAA	–	0.397	–
ACAGACGAAGGAGCCGCAAAGAATTTATTAAGGGATGAATAATCGCTCAATATAAATATCTCTCACTTATTTAAA	0.105	0.0604	–
ACAGACGAAGGAGCCGCAAAGAATTTATTAAGGGATGAATAATCTCTCAATATAAATATCTCTCACTTATTTAAA	–	0.844	–
ACAGACGAAGGAGCCGCAAAGAATTTATTAAGGGATGAATAATGCATCAATATAAATATCTCTCACTTATTTAAA	–	0.2	–
ACAGACGAAGGAGCCGCAAAGAATTTATTAAGGGATGAATAATGCCTCAATATAAATATCTCTCACTTATTTAAA	–	0.177	–
ACAGACGAAGGAGCCGCAAAGAATTTATTAAGGGATGAATAATTCCTCAATATAAATATCTCTCACTTATTTAAA	–	0.394	–
ACAGACGAAGGAGCCGCAAAGAATTTATTAAGGGATGAATACTCCCTCAATATAAATATCTCTCACTTATTTAAA	0.404	0.583	–
ACAGACGAAGGAGCCGCAAAGAATTTATTAAGGGATGAATAGTCCCTCAATATAAATATCTCTCACTTATTTAAA	–	0.713	–
ACAGACGAAGGAGCCGCAAAGAATTTATTAAGGGATGAATCATCCCTCAATATAAATATCTCTCACTTATTTAAA	–	0.545	–
ACAGACGAAGGAGCCGCAAAGAATTTATTAAGGGATGAATTATCCCTCAATATAAATATCTCTCACTTATTTAAA	0.531	0.268	–
ACAGACGAAGGAGCCGCAAAGAATTTATTAAGGGATGACTAATCCCTCAATATAAATATCTCTCACTTATTTAAA	0.3	–	–
ACAGACGAAGGAGCCGCAAAGAATTTATTAAGGGATGCATAATCCCTCAATATAAATATCTCTCACTTATTTAAA	0.535	0.597	–
ACAGACGAAGGAGCCGCAAAGAATTTATTAAGGGATGTATAATCCCTCAATATAAATATCTCTCACTTATTTAAA	–	0.683	–
ACAGACGAAGGAGCCGCAAAGAATTTATTAAGGGATTAATAATCACTCAATATAAATATCTCTCACTTATTTAAA	–	0.153	–
ACAGACGAAGGAGCCGCAAAGAATTTATTAAGGGATTAATAATCCCTCAATATAAATATCTCTCACTTATTTAAA	0.771	0.772	–
